# Experimental data taken from patent US20050095655A1, “Solution-based methods for detecting MHC-binding peptides” (priority 2003, published 2005).
# Legend:
# [1] = target: monomer HLA-A*0201/HIVpol (Homo sapiens, UniProt P04439, D140Y/D185E/D98H/E176V/E277Q/G131W/G231S/I119V/I121R/I166T/I218V/L300P/L318F/N151K/N90K/P208A/P217A/Q86G/Q94H/R138H/R169H/T345S); test: Exchange of fluorescent tracer peptide on template monomer, no competitor
# [2] = target: monomer HLA-A*0201/CMVpp65 (Homo sapiens, UniProt P04439, D140Y/D185E/D98H/E176V/E277Q/G131W/G231S/I119V/I121R/I166T/I218V/L300P/L318F/N151K/N90K/P208A/P217A/Q86G/Q94H/R138H/R169H/T345S); test: as above; details: after 120 h
substance,measurement,setting,value
FLPSDC(FITC)FPSV [HBVc-FITC],maximum percentage of exchange,[1],40%
same,% exchange,[2],about 80%
